Source: patent US20220282217A1 (BIONTECH US, published 2022)

Experiments:
HLA-A02.01 [1] = target: T1, HLA-A02.01 (human); assay: competition with radiolabeled reference peptide, purified MHC I
T1 construct: Purified class I MHC
Experimental: (§1) Peptides were incubated at varying concentrations with these complexes for 2 days, and the amount of remaining radiolabeled peptide bound to […] was measured using size exclusion gel-filtration.

HLA-A02.01 [2] = target: T1, HLA-A02.01; assay: pMHC-I dissociation half-life, 125I-b2m
How it was run: (§2)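 Biotinylated MHC-I heavy chain made in E. coli, captured on streptavidin plates and complexed with peptide and radiolabelled light chain. Dissociation started with excess unlabelled light chain at 37 °C. Stability is the half-life in hours from scintillation counts.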

HLA-B08.01 = target: T2, HLA-B08.01 (human); assay: pMHC-I dissociation half-life, 125I-b2m
T2 construct: Purified class I MHC
How it was run: as §2

HLA-A24.02 [3] = target: T3, HLA-A24.02 (human); assay: competition vs radiolabeled reference peptide on purified MHC I, gel filtration
T3 construct: As for HLA-A02.01
Experimental: as §1

HLA-A02.01 [4] = target: HLA-A02.01 (human); assay: as above
Experimental: as §1

HLA-A24.02 [5] = target: T3, HLA-A24.02; assay: pMHC-I complex dissociation at 37 C, 125I-b2m, half-life
Experimental: (§3) Briefly, synthetic genes encoding biotinylated MHC-I heavy and light chains are expressed in E. coli and purified from inclusion bodies using standard methods. […] These reactions are carried out in streptavidin coated microplates to bind the biotinylated MHC-I heavy chains to the surface and allow measurement of radiolabeled light chain to monitor complex formation. Dissociation is initiated by addition of higher concentrations of unlabeled light-chain and incubation at 37° C. Stability is defined as the length of time in hours it takes for half of the complexes to dissociate, as measured by scintillation counts.

HLA-A02.01 [6] = target: HLA-A02.01 (human); assay: as above
Experimental: as §3

[7] = target: T4, HLA class I molecule A01.01; assay: competition with radiolabeled reference peptide on purified MHC I
T4 construct: Purified MHC class I complex; also called HLA-A01:01
Experimental: as §1

HLA-B07.02 = target: T5, HLA-B07.02 (human); assay: competition with radiolabeled reference peptide, purified MHC I
T5 construct: Purified class I MHC
Experimental: as §1

[8] = target: T6, HLA class I molecule A24.02; assay: competition with radiolabeled reference peptide on purified MHC I
T6 construct: Purified MHC class I complex; also called HLA-A24:02
Experimental: as §1

[9] = target: T7, HLA class I molecule A03.01; assay: as above
T7 construct: Purified MHC class I complex; also called HLA-A03:01
Experimental: as §1

[10] = target: T8, HLA class I molecule B07.02; assay: as above
T8 construct: Purified MHC class I complex; also called HLA-B07:02
Experimental: as §1

[11] = target: T9, HLA class I molecule B08.01; assay: pMHC-I dissociation assay with 125I-labeled beta2m light chain at 37 C, scintillation counts; time in hours for half of the complexes to dissociate
T9 construct: Purified MHC class I complex; also called HLA-B08:01
Experimental: as §3

[12] = target: T10, HLA class I molecule A02.01; assay: pMHC-I dissociation half-life, 125I-b2m
T10 construct: Purified MHC class I complex; also called HLA-A02:01
How it was run: as §2

[13] = target: T9, HLA class I molecule B08.01; assay: pMHC-I dissociation half-life, 125I-b2m
How it was run: as §2

[14] = target: T10, HLA class I molecule A02.01; assay: competition with radiolabeled reference peptide on purified MHC I
Experimental: as §1

With CMGGMNQRPI (also called TP53, R248Q) the IC50 (HLA-A02.01 [1]) was 3670 nM, the “Stability (T1/2 (h))” value (HLA-A02.01 [2]) was 0 h and the “Stability (T1/2 (h))” value (HLA-B08.01) was 0 h.

With GVYTFLPSTL (also called ESR1, S463P) the IC50 (HLA-A24.02 [3]) was 7700 nM, the IC50 (HLA-A02.01 [4]) was 1200 nM and the “Stability (T1/2 (h))” value (HLA-A24.02 [5]) was 0 h. The “Stability (T1/2 (h))” value (HLA-A02.01 [6]) was 0.4 h.

With TTNAFSGEY (also called RAC1, P29S) the IC50 [7] was 4.4 nM.

With RVQNQGHLL (also called UBR5(-1)) the IC50 (HLA-B07.02) was 826 nM.

MFLKAESKI (also called GATA3 . . ; CSNH) was tested, and the IC50 [8] was 332 nM.

Work on EYMANGSLL (also called BTK, C481S) yielded an IC50 (HLA-A24.02 [3]) of 5 nM.

FFCWILSCK (also called NDUFC2 (-KCDT14)(+1)) showed an IC50 [9] of 185 nM.

In the case of LPQARLCLI (also called MSH3(-1)), the IC50 [10] is reported as 72.6 nM.

Binder LYITAFFFCW (also called NDUFC2 (-KCDT14)(+1)) has an IC50 [8] of 45.3 nM.

For RRMPPCLANF (also called C15ORF40(+1)), the IC50 (HLA-A24.02 [3]) was 141 nM.

In the case of IMKPKRDGYM (also called GATA3 . . ; CSNH), the “Observed MHC Stability” value [11] is reported as 0.4 h.

For VLWTTPPLQH (also called GATA3 . . ; CSNH), the IC50 [9] was 16 nM.

Work on RPLQTHVLPE (also called GATA3 . . ; CSNH) yielded an IC50 [10] of 2530 nM.

Binder GSNEVTTRY (also called RBM27(+1)) has an IC50 [7] of 606 nM.

For RMPPCLANF (also called C15ORF40(+1)), the IC50 (HLA-A24.02 [3]) was 8.7 nM.

TGSNEVTTRY (also called RBM27(+1)) was tested, and the IC50 [7] was 15500 nM.

KSRQNHLQL (also called SMAP1(-1)) was tested, and the IC50 (HLA-B07.02) was 78 nM.

In the case of LLYITAFFL (also called NDUFC2 (-KCDT14)(-1)), the “Stability (T1/2 (h))” value [12] is reported as 17 h, the “Stability (T1/2 (h))” value [13] is reported as 0 h and the IC50 [14] is reported as 713 nM.

In the case of VPAVPFDLHF (also called GATA3 . . ; CSNH), the IC50 [10] is reported as 2110 nM.

Work on ALKKLRSPL (also called SMAP1(-1)) yielded an IC50 (HLA-B07.02) of 223 nM.

For VVPLYGLLL (also called ESR1, D538G), the IC50 (HLA-A24.02 [3]) was 658 nM, the “Stability (T1/2 (h))” value (HLA-A24.02 [5]) was 0.8 h and the “Stability (T1/2 (h))” value (HLA-A02.01 [6]) was 0.6 h.

With LHFCRSSIM (also called GATA3 . . ; CSNH) the “Observed MHC Stability” value [11] was 0 h.

With HVLPEPHLAL (also called GATA3 . . ; CSNH) the IC50 [10] was 1330 nM.

RLSSVLQRF (also called β2M, . . ; SQIS) showed an IC50 (HLA-A24.02 [3]) of 28.2 nM.

For QVLHECNSL (also called MEK, P124L), the “Stability (T1/2 (h))” value [12] was 0.5 h, the “Stability (T1/2 (h))” value [13] was 0 h and the IC50 [14] was 7770 nM.

With ILDTAGHEEY (also called KRAS, Q61H) the IC50 [7] was 64.2 nM.

ILDTAGLEEY (also called KRAS, Q61L) gave an IC50 [7] of 8.6 nM.

ILDTAGREEY (also called NRAS, Q61R) gave an IC50 [7] of 7 nM.

ILDTAGKEEY (also called NRAS, Q61K) was tested, and the IC50 [7] was 14.3 nM.

In the case of KFPELLCVW (also called β2M, . . ; SIRH), the IC50 (HLA-A24.02 [3]) is reported as 13.7 nM.

LYITAFFLLD (also called NDUFC2 (-KCDT14)(-1)) showed an IC50 [8] of 0.4 nM.

In the case of LYGLLLEML (also called ESR1, D538G), the IC50 (HLA-A24.02 [3]) is reported as 0.8 nM.

For QPVLWTTPPL (also called GATA3 . . ; CSNH), the IC50 [10] was 109 nM.

With LYITAFFLL (also called NDUFC2 (-KCDT14)(-1)) the IC50 [8] was 0.1 nM.

GFKLFSCLSF (also called C15ORF40(+1)) showed an IC50 (HLA-A24.02 [3]) of 643 nM.

In the case of FLKAESKIM (also called GATA3 . . ; CSNH), the “Observed MHC Stability” value [11] is reported as 1.2 h.

LLYITAFFLL (also called NDUFC2 (-KCDT14)(-1)) gave an IC50 [14] of 323 nM and an IC50 [8] of 60.1 nM.

LLALWECSL (also called MSH3(-1)) was tested, and the “Stability (T1/2 (h))” value [12] was 4 h and the “Stability (T1/2 (h))” value [13] was 0 h.

In the case of FFCYILNTMF (also called CNOT1(-1)), the IC50 (HLA-A24.02 [3]) is reported as 73.4 nM.

With YLVIQLQDKF (also called EGFR: SEPT14) the IC50 (HLA-A24.02 [3]) was 2150 nM, the IC50 (HLA-A02.01 [4]) was 2060 nM and the “Stability (T1/2 (h))” value (HLA-A24.02 [5]) was 2.6 h. The “Stability (T1/2 (h))” value (HLA-A02.01 [6]) was 0 h.

FLKAESKIMF (also called GATA3 . . ; CSNH) was tested, and the “Observed MHC Stability” value [11] was 0 h.

In the case of ESKIMFATL (also called GATA3 . . ; CSNH), the “Observed MHC Stability” value [11] is reported as 1.3 h.

In the case of GPPRPPRAAC (also called LMAN1(+1)), the IC50 [10] is reported as 48.6 nM.

With LQVLHECNSL (also called MEK, P124L) the “Stability (T1/2 (h))” value [12] was 0 h, the “Stability (T1/2 (h))” value [13] was 0 h and the IC50 [14] was 4720 nM.

For KLSDSRTAL (also called FRG1B, I1OT), the “Stability (T1/2 (h))” value [13] was 0 h.

In the case of YTTNAFSGEY (also called RAC1, P29S), the IC50 [7] is reported as 10.5 nM.

Work on PPRPPRAAC (also called LMAN1(+1)) yielded an IC50 [10] of 32.8 nM.

With EPHLALQPL (also called GATA3 . . ; CSNH) the IC50 [10] was 17 nM.

Work on FFFCWILSCK (also called NDUFC2 (-KCDT14)(+1)) yielded an IC50 [9] of 597 nM.

With KGPELFPLI (also called C11orf95: RELA) the IC50 (HLA-A24.02 [3]) was 14 nM, the IC50 (HLA-A02.01 [4]) was 101 nM and the “Stability (T1/2 (h))” value (HLA-A24.02 [5]) was 1.7 h. The “Stability (T1/2 (h))” value (HLA-A02.01 [6]) was 0.3 h.

For AISTRDPLSK (also called PIK3CA, E542K), the IC50 [9] was 57.5 nM.
